Assay [1] addresses T1, RAS G12C peptide on HLA-A*11:01 (human).
T1 peptide: VVVGACGVGK
The experiment in a line: activation reporter or marker.

Assay [2] concerns the target T2, RAS G12V peptide on HLA-A*03:01 (human).
T2 peptide: VVVGAVGVGK
The experiment in a line: cytokine release.

In assay [3] the target is T3, RAS wild type peptide on HLA-A*11:01 (human).
T3 peptide: VVVGAGGVGK
The experiment in a line: killing.

For assay [4], the target named is T4, RAS G12V peptide on HLA-A*11:01 (human).
T4 peptide: VVVGAVGVGK
In words: multimer staining.

The target of assay [5] is T5, RAS wild type peptide on HLA-B*07:02 (human).
T5 peptide: GAGGVGKSAL
In words: activation reporter or marker.

Assay [6] concerns the target T6, RAS G12C peptide on HLA-B*07:02 (human).
T6 peptide: GACGVGKSAL
The experiment in a line: activation reporter or marker.

The target of assay [7] is T7, RAS G12V peptide on HLA-B*07:02 (human).
T7 peptide: GAVGVGKSAL
In words: activation reporter or marker.

Assay [8] addresses T8, RAS G12D peptide on HLA-B*07:02 (human).
T8 peptide: GADGVGKSAL
In words: activation reporter or marker.

Assay [9] addresses T9, RAS G12R peptide on HLA-B*07:02 (human).
T9 peptide: GARGVGKSAL
The experiment in a line: multimer staining.

Assay [10] concerns the target T10, RAS G12D peptide on HLA-A*11:01 (human).
T10 peptide: VVGADGVGK
In words: activation reporter or marker.

Assay [11] has as its target T11, RAS wild type peptide on HLA-A*11:01 (human).
T11 peptide: VVGAGGVGK
The experiment in a line: activation reporter or marker.

The target of assay [12] is T12, RAS G12C peptide on HLA-A*11:01 (human).
T12 peptide: VVGACGVGK
In words: activation reporter or marker.

The target of assay [13] is T13, RAS G12V peptide on HLA-A*11:01 (human).
T13 peptide: VVGAVGVGK
The experiment in a line: multimer staining.

The target in assay [14] is T5, RAS wild type peptide on HLA-B*07:02. In words: killing.
Assay [15] addresses T14, RAS G12D peptide on HLA-A*03:01 (human).
T14 peptide: VVVGADGVGK
In words: activation reporter or marker.

Assay [16] has as its target T15, RAS G12R peptide on HLA-A*03:01 (human).
T15 peptide: VVVGARGVGK
In words: activation reporter or marker.

Assay [17] concerns the target T16, RAS G12C peptide on HLA-A*03:01 (human).
T16 peptide: VVVGACGVGK
The experiment in a line: activation reporter or marker.

In assay [18] the target is T17, RAS wild type peptide on HLA-A*03:01 (human).
T17 peptide: VVVGAGGVGK
In words: killing.

Assay [19] has as its target T2, RAS G12V peptide on HLA-A*03:01. In words: multimer staining.

B1: TCR831 (TCR, V domains shown)
Valpha: ELKVEQNPLFLSMQEGKNYTIYCNYSTTSDRLYWYRQDPGKSLESLFVLLSNGAVKQEGRLMASLDTKARLSTLHITAAVHDLSATYFCAVDKDGGYQKVTFGTGTKLQVIP
Vbeta: GAVVSQHPSWVICKSGTSVKIECRSLDFQATTMFWYRQFPKQSLMLMATSNEGSKATYEQGVEKDKFLINHASLTLSTLTVTSAHPEDSSFYICSASPRAGQLSSYNSPLHFGNGTRLTVT
B1: the binding result in assay [1] is recorded as “recognises”; in [2], “no recognition”; in [3], “no recognition”; in [4] it was “recognises”.

B2: TCR833 (TCR, V domains shown)
Valpha: RKEVEQDPGPFNVPEGATVAFNCTYSNSASQSFFWYRQDCRKEPKLLMSVYSSGNEDGRFTAQLNRASQYISLLIRDSKLSDSATYLCAVNPPDTGFQKLVFGTGTRLLVSP
Vbeta: DVKVTQSSRYLVKRTGEKVFLECVQDMDHENMFWYRQDPGLGLRLIYFSYDVKMKEKGDIPEGYSVSREKKERFSLILESASTNQTSMYLCASSLSFRQGLREQYFGPGTRLTVT
Take B2: the binding result in [1] is reported as “recognises”; in assay [2] it was “no recognition”; in assay [3], “no recognition”; in assay [4] it was “recognises”.

B3: TCR847 (TCR, V domains shown)
Valpha: SQQGEEDPQALSIQEGENATMNCSYKTSINNLQWYRQNSGRGLVHLILIRSNEREKHSGRLRVTLDTSKKSSSLLITASRAADTASYFCATFPNFGNEKLTFGTGTRLTIIP
Vbeta: DAGITQSPRHKVTETGTPVTLRCHQTENHRYMYWYRQDPGHGLRLIHYSYGVKDTDKGEVSDGYSVSRSKTEDFLLTLESATSSQTSVYFCAISESERYYEQYFGPGTRLTVT
For B3, the binding result in assay [5] is on record as “no recognition”; in [6] it was “no recognition”; in assay [7] it was “no recognition”; in assay [8], “no recognition”; in [9], “recognises”.

B4: TCR897 (TCR, V domains shown)
Valpha: SQQGEEDPQALSIQEGENATMNCSYKTSINNLQWYRQNSGRGLVHLILIRSNEREKHSGRLRVTLDTSKKSSSLLITASRAADTASYFCATDPGGFKTIFGAGTRLFVKA
Vbeta: EAGVAQSPRYKIIEKRQSVAFWCNPISGHATLYWYQQILGQGPKLLIQFQNNGVVDDSQLPKDRFSAERLKGVDSTLKIQPAKLEDSAVYLCASSLYGGSISYEQYFGPGTRLTVT
Take B4: the binding result is on record as “recognises” in [10], “no recognition” in [11], “recognises” in assay [12] and “recognises” in assay [13].

B5: TCR864 (TCR, V domains shown)
Valpha: LAKTTQPISMDSYEGQEVNITCSHNNIATNDYITWYQQFPSQGPRFIIQGYKTKVTNEVASLFIPADRKSSTLSLPRVSLSDTAVYYCLVGDFNSNSGYALNFGKGTSLLVTP
Vbeta: GAGVSQSPSNKVTEKGKDVELRCDPISGHTALYWYRQRLGQGLEFLIYFQGNSAPDKSGLPSDRFSAERTGESVSTLTIQRTQQEDSAVYLCASKVYGYTFGSGTRLTVV
Take B5: the binding result in [6] was “no recognition”; in assay [7], “no recognition”; in assay [8] it was “no recognition”; in assay [14] it was “no recognition”; in assay [9], “recognises”.

B6: TCR896 (TCR, V domains shown)
Valpha: AQKVTQAQTEISVVEKEDVTLDCVYETRDTTYYLFWYKQPPSGELVFLIRRNSFDEQNEISGRYSWNFQKSTSSFNFTITASQVVDSAVYFCALSEAGTYKYIFGTGTRLKVLA
Vbeta: DSGVTQTPKHLITATGQRVTLRCSPRSGDLSVYWYQQSLDQGLQFLIQYYNGEERAKGNILERFSAQQFPDLHSELNLSSLELGDSALYFCASSVAGGGQETQYFGPGTRLLVL
For B6, the binding result in assay [15] was “no recognition”; in assay [16] it was “no recognition”; in assay [17], “no recognition”; in assay [18] it was “no recognition”; in assay [19], “recognises”.

The record behind these values is patent US20220088190A1 (published 2022).
